To fix the notation:
B1: Segment polarity protein dishevelled homolog DVL-3, residues 2 to 81; numbered along this chain, Q92997 (parent)
chain: GETKIIYHLDGQETPYLVKLPLPAERVTLADFKGVLQRPSYKFFFKSMDDDFGVVKEEISDDNAKLPCFNGRVVSWLVSA

± gives the uncertainty stated by the source.

The series covers variants of B1. As to the kind of experiment: abundance fitness (aPCA) (normalised: wild type 0, dead -1); higher = more abundant; growth selection in yeast, the domain comes from the species named. The following applies: Homo sapiens.
Regarding GETKIIYHLDGQETPYLVKLPLPAERVTLADFKGVLQRPSYKFFFKSMDDDFGVMKEEISDDNAKLPCFNGRVVSWLVSA, the abundance fitness is -0.024 ± 0.066.

In the case of GETKIIYHLDGQETPYLVKLPLPAERVTLADFKGVLQRPSYKFFFKSMDDDFGVCKEEISDDNAKLPCFNGRVVSWLVSA, the abundance fitness stood at 0.198 ± 0.073.

Regarding GETKIIYHLDGQETPYLVKLPLPAERVTLADFKGVLQRPSYKFFFKSMDDDFGVKKEEISDDNAKLPCFNGRVVSWLVSA, the abundance fitness is 0.199 ± 0.061.

Turning to GETKIIYHLDGQETPYLVKLPLPAERVTLADFKGVLQRPSYKFFFKSMDDDFGVHKEEISDDNAKLPCFNGRVVSWLVSA, the abundance fitness turned out to be 0.365 ± 0.075.

For the variant GETKIIYHLDGQETPYLVKLPLPAERVTLADFKGVLQRPSYKFFFKSMDDDFGVEKEEISDDNAKLPCFNGRVVSWLVSA, the abundance fitness is -0.104 ± 0.059.

Take GETKIIYHLDGQETPYLVKLPLPAERVTLADFKGVLQRPSYKFFFKSMDDDFGVVPEEISDDNAKLPCFNGRVVSWLVSA: the abundance fitness was -0.496 ± 0.089.

For GETKIIYHLDGQETPYLVKLPLPAERVTLADFKGVLQRPSYKFFFKSMDDDFGVVDEEISDDNAKLPCFNGRVVSWLVSA, the abundance fitness was -0.738 ± 0.21.

Take GETKIIYHLDGQETPYLVKLPLPAERVTLADFKGVLQRPSYKFFFKSMDDDFGVVAEEISDDNAKLPCFNGRVVSWLVSA: the abundance fitness is -0.32 ± 0.06.

Turning to GETKIIYHLDGQETPYLVKLPLPAERVTLADFKGVLQRPSYKFFFKSMDDDFGVVCEEISDDNAKLPCFNGRVVSWLVSA, the abundance fitness amounted to 0.103 ± 0.068.

For the variant GETKIIYHLDGQETPYLVKLPLPAERVTLADFKGVLQRPSYKFFFKSMDDDFGVVIEEISDDNAKLPCFNGRVVSWLVSA, the abundance fitness was 0.03 ± 0.096.

GETKIIYHLDGQETPYLVKLPLPAERVTLADFKGVLQRPSYKFFFKSMDDDFGVVLEEISDDNAKLPCFNGRVVSWLVSA: the abundance fitness was -0.094 ± 0.051.

GETKIIYHLDGQETPYLVKLPLPAERVTLADFKGVLQRPSYKFFFKSMDDDFGVVHEEISDDNAKLPCFNGRVVSWLVSA: the abundance fitness is -0.216 ± 0.1.

With GETKIIYHLDGQETPYLVKLPLPAERVTLADFKGVLQRPSYKFFFKSMDDDFGVVNEEISDDNAKLPCFNGRVVSWLVSA, the abundance fitness was -0.678 ± 0.22.

Consider GETKIIYHLDGQETPYLVKLPLPAERVTLADFKGVLQRPSYKFFFKSMDDDFGVVFEEISDDNAKLPCFNGRVVSWLVSA, for which the abundance fitness is -0.009 ± 0.082.

On to GETKIIYHLDGQETPYLVKLPLPAERVTLADFKGVLQRPSYKFFFKSMDDDFGVVEEEISDDNAKLPCFNGRVVSWLVSA, for which the abundance fitness is -0.431 ± 0.079.

In the case of GETKIIYHLDGQETPYLVKLPLPAERVTLADFKGVLQRPSYKFFFKSMDDDFGVVGEEISDDNAKLPCFNGRVVSWLVSA, the abundance fitness is -0.63 ± 0.066.

On to GETKIIYHLDGQETPYLVKLPLPAERVTLADFKGVLQRPSYKFFFKSMDDDFGCVKEEISDDNAKLPCFNGRVVSWLVSA, for which the abundance fitness is 0.01 ± 0.075.

As for GETKIIYHLDGQETPYLVKLPLPAERVTLADFKGVLQRPSYKFFFKSMDDDFGMVKEEISDDNAKLPCFNGRVVSWLVSA, the abundance fitness is -0.188 ± 0.079.

In the case of GETKIIYHLDGQETPYLVKLPLPAERVTLADFKGVLQRPSYKFFFKSMDDDFGGVKEEISDDNAKLPCFNGRVVSWLVSA, the abundance fitness is -0.127 ± 0.044.

On to GETKIIYHLDGQETPYLVKLPLPAERVTLADFKGVLQRPSYKFFFKSMDDDFGIVKEEISDDNAKLPCFNGRVVSWLVSA, for which the abundance fitness was determined as 0.175 ± 0.09.

As to GETKIIYHLDGQETPYLVKLPLPAERVTLADFKGVLQRPSYKFFFKSMDDDFGLVKEEISDDNAKLPCFNGRVVSWLVSA, the abundance fitness was -0.083 ± 0.053.

For GETKIIYHLDGQETPYLVKLPLPAERVTLADFKGVLQRPSYKFFFKSMDDDFGAVKEEISDDNAKLPCFNGRVVSWLVSA, the abundance fitness stood at 0.005 ± 0.056.

For the variant GETKIIYHLDGQETPYLVKLPLPAERVTLADFKGVLQRPSYKFFFKSMDDDFGDVKEEISDDNAKLPCFNGRVVSWLVSA, the abundance fitness amounted to 0.168 ± 0.08.

Consider GETKIIYHLDGQETPYLVKLPLPAERVTLADFKGVLQRPSYKFFFKSMDDDFGNVKEEISDDNAKLPCFNGRVVSWLVSA, for which the abundance fitness was -0.005 ± 0.11.

In the case of GETKIIYHLDGQETPYLVKLPLPAERVTLADFKGVLQRPSYKFFFKSMDDDFGKVKEEISDDNAKLPCFNGRVVSWLVSA, the abundance fitness is -0.657 ± 0.14.

As for GETKIIYHLDGQETPYLVKLPLPAERVTLADFKGVLQRPSYKFFFKSMDDDFGTVKEEISDDNAKLPCFNGRVVSWLVSA, the abundance fitness is -0.178 ± 0.082.

For GETKIIYHLDGQETPYLVKLPLPAERVTLADFKGVLQRPSYKFFFKSMDDDFGWVKEEISDDNAKLPCFNGRVVSWLVSA, the abundance fitness is 0.13 ± 0.052.

With GETKIIYHLDGQETPYLVKLPLPAERVTLADFKGVLQRPSYKFFFKSMDDDFGYVKEEISDDNAKLPCFNGRVVSWLVSA, the abundance fitness is -0.088 ± 0.12.

As to GETKIIYHLDGQETPYLVKLPLPAERVTLADFKGVLQRPSYKFFFKSMDDDFGFVKEEISDDNAKLPCFNGRVVSWLVSA, the abundance fitness is 0.136 ± 0.076.

As for GETKIIYHLDGQETPYLVKLPLPAERVTLADFKGVLQRPSYKFFFKSMDDDFGPVKEEISDDNAKLPCFNGRVVSWLVSA, the abundance fitness stood at 0.069 ± 0.067.

As to GETKIIYHLDGQETPYLVKLPLPAERVTLADFKGVLQRPSYKFFFKSMDDDFGSVKEEISDDNAKLPCFNGRVVSWLVSA, the abundance fitness is -0.082 ± 0.055.

Consider GETKIIYHLDGQETPYLVKLPLPAERVTLADFKGVLQRPSYKFFFKSMDDDFGHVKEEISDDNAKLPCFNGRVVSWLVSA, for which the abundance fitness worked out at 0.002 ± 0.12.

Regarding GETKIIYHLDGQETPYLVKLPLPAERVTLADFKGVLQRPSYKFFFKSMDDDFGEVKEEISDDNAKLPCFNGRVVSWLVSA, the abundance fitness is 0.192 ± 0.052.

GETKIIYHLDGQETPYLVKLPLPAERVTLADFKGVLQRPSYKFFFKSMDDDFGQVKEEISDDNAKLPCFNGRVVSWLVSA: the abundance fitness is -0.241 ± 0.089.

With GETKIIYHLDGQETPYLVKLPLPAERVTLADFKGVLQRPSYKFFFKSMDDDFGRVKEEISDDNAKLPCFNGRVVSWLVSA, the abundance fitness is -0.556 ± 0.064.

Values taken from the Human Domainome abundance scans (Beltran et al. 2025).
